B1: Ribonuclease HI, P0A7Y4 (parent)
chain: MLKQVEIFTDGSCLGNPGPGGYGAILRYRGREKTFSAGYTRTTNNRMELMAAIVALEALKEHCEVILSTDSQYVRQGITQWIHNWKKRGWKTADKKPVKNVDLWQRLDAALGQHQIKWEWVKGHAGHPENERCDELARAAAMNPTLEDTGYQVEV
B2: Chaperone Ric-8A, Q5E9J8 (parent)
chain: MEPRAVADALETGEEDVVMEALRAYNRENSQSFTFDDAQQEDRKRLAKLLVSVLEQGLPPSRRVIWLQSIRILSRDRSCLDSFTSRRSLQALACYAGISASQGSVPEPLNMDVVLESLKCLCNLVLSSPVAQALAAEAGLVVRLAERVGLCRQSSFPHDVQFFDLRLLFLLTALRTDVRQQLFQELQGVRLLTRALELTLGMTEGERHPELLPPQETERAMEILKVLFNITFDSIKREVDEEDAALYRHLGTLLRHCVMLAAAGDRTEELHGHAVNLLGNLPVKCLDVLLTLEPHEGSLEFLGVNMDVIRVLLSFMEKRLHQTHRLKESVAPVLSVLTECARMHRPARKFLKAQVLPPLRDVRTRPEVGELLRNKLVRLMTHLDTDVKRVAAEFLFVLCSESVPRFIKYTGYGNAAGLLAARGLMAGGRPEGQYSEDEDTDTDEYKEAKASINPVTGRVEEKPPNPMEGMTEEQKEHEAMKLVNMFDKLSRHRVIQPMGMSPRGQLTSLQDAMCETMEGQLSSDPDSDPD
B3: Protein GrpE, Q65H53 (parent)
chain: MAEEKQNEELNEQEELNETEAETAEAEQTAAEADAPAEETQTEMLEKQLKELQERLEEKENKLLRVQADFENYKRRARLDLEAAEKYRSQRIISDLLPALDNFERALQIDPDNEQTKSLLQGMEMVHRQILEALKNEGVEQIPSVGEQFDPNMHQAVMQVEDEAYESNAVVEELQKGYKLKDRVIRPSMVKVNQ
B4: Acylphosphatase-1, P41500 (parent)
chain: MSMAEGDTLISVDYEIFGKVQGVFFRKYTQAEGKKLGLVGWVQNTDQGTVQGQLQGPASKVRHMQEWLETKGSPKSHIDRASFHNEKVIVKLDYTDFQIVK
B5: Triosephosphate isomerase, P00943 (parent)
chain: MRKPIIAGNWKMHKTLAEAVQFVEDVKGHVPPADEVISVVCAPFLFLDRLVQAADGTDLKIGAQTMHFADQGAYTGEVSPVMLKDLGVTYVILGHSERRQMFAETDETVNKKVLAAFTRGLIPIICCGESLEEREAGQTNAVVASQVEKALAGLTPEQVKQAVIAYEPIWAIGTGKSSTPEDANSVCGHIRSVVSRLFGPEAAEAIRIQYGGSVKPDNIRDFLAQQQIDGPLVGGASLEPASFLQLVEAGRHE

Variants of: B1
Conditions: Escherichia coli (strain K12); pH 3; 50.1 °C; Thermal; CD; glycine-HCl 10 mM; NaCl 0.1 M; reversible: yes; structure 2RN2; whole UniProt chain shown
In the case of E119V K60R, the “ddG of mutation (higher = less stable)” value is reported as 0.06 kcal/mol. In the case of A24V, the “ddG of mutation (higher = less stable)” value is reported as -0.73 kcal/mol. With H62P T40A K122R the “ddG of mutation (higher = less stable)” value was -0.52 kcal/mol. With Q80L K117R the “ddG of mutation (higher = less stable)” value was 0.03 kcal/mol. With E119V R41C the “ddG of mutation (higher = less stable)” value was -0.09 kcal/mol.

Same assay, conditions: Escherichia coli (strain K12); pH 3; Thermal; CD; glycine-HCl 10 mM; NaCl 0.1 M; reversible: yes; structure 2RN2; whole UniProt chain shown
For E119V K60R, the Tm was 49.9 °C, the “change of melting temperature, mutant - wild type (higher = more stable)” value (“change of melting temperature, mutant” for short) was -0.2 °C and the “unfolding enthalpy (van 't Hoff)” value was 109 kcal/mol. In the case of A24V, the Tm is reported as 52.5 °C, the “change of melting temperature, mutant” value is reported as 2.4 °C and the “unfolding enthalpy (van 't Hoff)” value is reported as 109 kcal/mol. For H62P T40A K122R, the Tm was 51.8 °C, the “change of melting temperature, mutant” value was 1.7 °C and the “unfolding enthalpy (van 't Hoff)” value was 109 kcal/mol. With Q80L K117R the Tm was 50 °C, the “change of melting temperature, mutant” value was -0.1 °C and the “unfolding enthalpy (van 't Hoff)” value was 104 kcal/mol. In the case of E119V R41C, the Tm is reported as 50.4 °C, the “change of melting temperature, mutant” value is reported as 0.3 °C and the “unfolding enthalpy (van 't Hoff)” value is reported as 101 kcal/mol.

Same assay, conditions: Escherichia coli (strain K12); pH 5.5; 52.7 °C; Thermal; CD; Sodium acetate 20 mM; NaCl 0.1 M; reversible: yes; structure 2RN2; whole UniProt chain shown
In the case of E119V K60R, the “ddG of mutation (higher = less stable)” value is reported as -0.63 kcal/mol.

Same assay, conditions: Escherichia coli (strain K12); pH 5.5; Thermal; CD; Sodium acetate 20 mM; NaCl 0.1 M; reversible: yes; structure 2RN2; whole UniProt chain shown
With E119V K60R the Tm was 55 °C, the “change of melting temperature, mutant” value was 2.3 °C and the “unfolding enthalpy (van 't Hoff)” value was 98.6 kcal/mol. With A24V the Tm was 55.9 °C, the “change of melting temperature, mutant” value was 3.2 °C and the “unfolding enthalpy (van 't Hoff)” value was 101 kcal/mol. With H62P T40A K122R the Tm was 55.8 °C, the “change of melting temperature, mutant” value was 3.1 °C and the “unfolding enthalpy (van 't Hoff)” value was 96.9 kcal/mol. For Q80L K117R, the Tm was 53.5 °C, the “change of melting temperature, mutant” value was 0.8 °C and the “unfolding enthalpy (van 't Hoff)” value was 83.1 kcal/mol. With E119V R41C the Tm was 56.9 °C, the “change of melting temperature, mutant” value was 4.2 °C and the “unfolding enthalpy (van 't Hoff)” value was 107 kcal/mol.

Same assay, conditions: Escherichia coli (strain K12); pH 3; 49.8 °C; Thermal; CD; glycine-HCl 10 mM; reversible: yes; structure 2RN2; whole UniProt chain shown
For K91R K95G, the “ddG of mutation (higher = less stable)” value was -1.6 kcal/mol. With K91R D94E the “ddG of mutation (higher = less stable)” value was 0.6 kcal/mol. For G77A, the “ddG of mutation (higher = less stable)” value was 0.9 kcal/mol.

Same assay, conditions: Escherichia coli (strain K12); pH 3; Thermal; CD; glycine-HCl 10 mM; reversible: yes; structure 2RN2; whole UniProt chain shown
With K91R K95G the Tm was 55 °C, the “change of melting temperature, mutant” value was 5.2 °C and the “unfolding enthalpy (van 't Hoff)” value was 114 kcal/mol. For K91R D94E, the Tm was 47.8 °C, the “change of melting temperature, mutant” value was -2 °C and the “unfolding enthalpy (van 't Hoff)” value was 93.8 kcal/mol. For K91R, the Tm was 49.8 °C, the “change of melting temperature, mutant” value was 0.5 °C and the “unfolding enthalpy (van 't Hoff)” value was 119 kcal/mol. For G77A, the Tm was 46.9 °C and the “change of melting temperature, mutant” value was -2.9 °C.

Same assay, conditions: Escherichia coli (strain K12); pH 5.5; Thermal; CD; glycine-HCl 10 mM; reversible: yes; structure 2RN2; whole UniProt chain shown
For K91R K95G, the Tm was 57.8 °C, the “change of melting temperature, mutant” value was 5.8 °C and the “unfolding enthalpy (van 't Hoff)” value was 92 kcal/mol. In the case of K91R D94E, the Tm is reported as 50.2 °C, the “change of melting temperature, mutant” value is reported as -1.8 °C and the “unfolding enthalpy (van 't Hoff)” value is reported as 87.5 kcal/mol.

Same assay, conditions: Escherichia coli (strain K12); pH 5.5; 49.8 °C; Thermal; CD; Sodium acetate 20 mM; reversible: yes; structure 2RN2; whole UniProt chain shown
For K91R, the “ddG of mutation (higher = less stable)” value was 0 kcal/mol.

Same assay, conditions: Escherichia coli (strain K12); pH 5.5; Thermal; CD; Sodium acetate 20 mM; reversible: yes; structure 2RN2; whole UniProt chain shown
In the case of K91R, the Tm is reported as 52 °C, the “change of melting temperature, mutant” value is reported as 0.1 °C and the “unfolding enthalpy (van 't Hoff)” value is reported as 96.2 kcal/mol.

Same assay, conditions: Escherichia coli (strain K12); pH 5.5; 25 °C; Urea; CD; sodium acetate 20 mM; KCl 50 mM; structure 2RN2; whole UniProt chain shown
In the case of I53L, the “ddG of mutation (higher = less stable)” value is reported as 1.4 kcal/mol, the denaturant m value is reported as 2.3 kcal/mol/M and the unfolding free energy is reported as 8.3 kcal/mol. With I53D the “ddG of mutation (higher = less stable)” value was 4.1 kcal/mol, the denaturant m value was 2 kcal/mol/M and the unfolding free energy was 5.6 kcal/mol. In the case of I53F, the “ddG of mutation (higher = less stable)” value is reported as 3.9 kcal/mol, the denaturant m value is reported as 2 kcal/mol/M and the unfolding free energy is reported as 5.8 kcal/mol.

Same assay, conditions: Escherichia coli (strain K12); pH 3; Thermal; CD; Gly-HCl buffer 10 mM; NaCl 0.1 M; reversible: yes; structure 2RN2; whole UniProt chain shown
In the case of V74A, the “change of melting temperature, mutant” value is reported as -7.6 °C and the “ddG of mutation (higher = less stable)” value is reported as 2.2 kcal/mol. With V74L the “change of melting temperature, mutant” value was 3.7 °C and the “ddG of mutation (higher = less stable)” value was -1.1 kcal/mol. In the case of V74I, the “change of melting temperature, mutant” value is reported as 2.4 °C and the “ddG of mutation (higher = less stable)” value is reported as -0.7 kcal/mol.

Same assay, conditions: Escherichia coli (strain K12); pH 5.5; Thermal; CD; sodium acetate 20 mM; NaCl 0.1 M; reversible: yes; structure 2RN2; whole UniProt chain shown
With V74A the “change of melting temperature, mutant” value was -12.7 °C and the “ddG of mutation (higher = less stable)” value was 3.4 kcal/mol. In the case of V74L, the “change of melting temperature, mutant” value is reported as 3.3 °C and the “ddG of mutation (higher = less stable)” value is reported as -0.9 kcal/mol. With V74I the “change of melting temperature, mutant” value was 2.1 °C and the “ddG of mutation (higher = less stable)” value was -0.6 kcal/mol.

Variants of: B2
Conditions: Bos taurus; pH 7.5; Thermal; DSF; Tris-HCl; KCl; structure 6N85; whole UniProt chain shown
With F169R the Tm was 45.6 °C and the “change of melting temperature, mutant” value was -1.2 °C. For N123E, the Tm was 46.7 °C and the “change of melting temperature, mutant” value was -0.1 °C. With R75M the Tm was 45.9 °C and the “change of melting temperature, mutant” value was -0.9 °C. For A173W, the Tm was 45.6 °C and the “change of melting temperature, mutant” value was -1.2 °C.

Variants of: B3
Conditions: Bacillus licheniformis (strain ATCC 14580 / DSM 13 / JCM 2505 / CCUG 7422 / NBRC 12200 / NCIMB 9375 / NCTC 10341 / NRRL NRS-1264 / Gibson 46…; pH 7; Thermal; CD; Hepes 10 mM; reversible: Yes; whole UniProt chain shown
With L134H the Tm was 43.2 °C, the “change of melting temperature, mutant” value was -8.8 °C and the “unfolding enthalpy (van 't Hoff)” value was 21 kcal/mol. With L52P the Tm was 40.1 °C, the “change of melting temperature, mutant” value was -11.9 °C and the “unfolding enthalpy (van 't Hoff)” value was 37.5 kcal/mol.

Variants of: B4
Conditions: Bos taurus; pH 5.5; 25 °C; Thermal; CD; sodium acetate 5 mM; reversible: Yes; structure 2ACY; whole UniProt chain shown
In the case of K27E E66K N85K Q98K, the “ddG of mutation (higher = less stable)” value is reported as -1.67 kcal/mol.

Same assay, conditions: Bos taurus; pH 5.5; Thermal; CD; sodium acetate 5 mM; reversible: Yes; structure 2ACY; whole UniProt chain shown
In the case of K27E E66K N85K Q98K, the “change of melting temperature, mutant” value is reported as 5.4 °C.

Same assay, conditions: Bos taurus; pH 7; 25 °C; Thermal; DSC; sodium phosphate 50 mM; reversible: Yes; structure 2ACY; whole UniProt chain shown
With K27E E66K N85K Q98K the “ddG of mutation (higher = less stable)” value was -1.67 kcal/mol.

Same assay, conditions: Bos taurus; pH 7; Thermal; DSC; sodium phosphate 50 mM; reversible: Yes; structure 2ACY; whole UniProt chain shown
With K27E E66K N85K Q98K the “change of melting temperature, mutant” value was 5.4 °C.

Variants of: B5
Conditions: Geobacillus stearothermophilus; pH 7.6; Thermal; DSC; TEA 100 mM; structure 1BTM; whole UniProt chain shown
In the case of H13N K14G, the Tm is reported as 105 °C. In the case of K14G, the Tm is reported as 73 °C and the “change of melting temperature, mutant” value is reported as -3 °C.
